Results: article PMC314469, “Protein Interaction Networks by Proteome Peptide Scanning” (PLoS Biology, 2004)

T1: Yfr024 SH3 (LSB3_YEAST), P43603
T1 chain: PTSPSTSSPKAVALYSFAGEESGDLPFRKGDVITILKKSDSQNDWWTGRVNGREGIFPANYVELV

T2: Boi1 SH3 (BOI1_YEAST), P38041
T2 chain: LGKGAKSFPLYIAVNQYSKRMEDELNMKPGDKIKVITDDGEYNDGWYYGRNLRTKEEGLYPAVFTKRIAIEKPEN

T3: Boi2 SH3 (BOI2_YEAST), P39969
T3 chain: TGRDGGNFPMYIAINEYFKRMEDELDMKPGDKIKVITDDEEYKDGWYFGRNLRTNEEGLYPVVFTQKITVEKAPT

T4: Myo5 SH3 (MYO5_YEAST), Q04439
T4 chain: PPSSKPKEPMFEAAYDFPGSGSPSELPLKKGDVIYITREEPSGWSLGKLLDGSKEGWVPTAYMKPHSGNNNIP

T5: Yhr016c SH3 (YSC84_YEAST), P32793
T5 chain: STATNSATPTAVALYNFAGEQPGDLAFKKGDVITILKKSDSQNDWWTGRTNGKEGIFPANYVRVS

T6: Rvs167 SH3 (RV167_YEAST), P39743
T6 chain: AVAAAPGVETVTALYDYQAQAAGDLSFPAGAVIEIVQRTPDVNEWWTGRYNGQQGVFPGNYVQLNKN


Biological target: T1, Yfr024 SH3 (LSB3_YEAST), P43603
Experiment: SPOT array

Row | Binder | normalised SPOT signal, Boehringer light units (BLU); mean over the file's lines of this peptide
1 | NKPKRKRPAPPKKK [YFR013W 78-91] | 568
2 | NPIPKSVPLHPKSG [YEL019C 6-19] | 88.1
3 | NNSTRPIPAIPMDL [YJL133W 8-21] | 39600
4 | NQIARQIPYQPWYL [YDR107C 515-528] | 145
5 | NKIPKHLPADPIFS [YCR032W 1499-1512] | 835
6 | NITEKSPPKSPKHK [YDR543C 77-90] | 187
7 | NLSLRYAPNLPPVI [YHL035C 1327-1340] | 154
8 | NPFVRINPNRPEAA [YBR136W 500-513] | 344

Continued, values first:

Row | normalised SPOT signal, Boehringer light units (BLU); mean over the file's lines of this peptide | Binder
9 | 312 | NQIARQIPFQPWYL [YLR083C 510-523]
10 | 389 | NLYQRTTPAGPDPS [YOL019W 467-480]
11 | 2450 | NPMQKPVPFVPVLD [YKL182W 1009-1022]
12 | 327 | NLKTKSHPEVPRLD [YLR189C 152-165]
13 | 518 | NIPTKSPPKSPKHK [YLL065W 94-107]
14 | 6960 | NNLKKRPPTAPQRK [YPR171W 465-478]

Biological target: T2, Boi1 SH3 (BOI1_YEAST), P38041
Experiment: SPOT array

Row | Binder | normalised SPOT signal, Boehringer light units (BLU); mean over the file's lines of this peptide
15 | NKPKRKRPAPPKKK [YFR013W 78-91] | 635
16 | NPIPKSVPLHPKSG [YEL019C 6-19] | 225
17 | NNSTRPIPAIPMDL [YJL133W 8-21] | 203
18 | NQIARQIPYQPWYL [YDR107C 515-528] | 105
19 | NKIPKHLPADPIFS [YCR032W 1499-1512] | 187
20 | NITEKSPPKSPKHK [YDR543C 77-90] | 3420
21 | NLSLRYAPNLPPVI [YHL035C 1327-1340] | 360
22 | NPFVRINPNRPEAA [YBR136W 500-513] | 444

The next lines start with the values.

Row | normalised SPOT signal, Boehringer light units (BLU); mean over the file's lines of this peptide | Binder
23 | 22.9 | NQIARQIPFQPWYL [YLR083C 510-523]
24 | 585 | NLYQRTTPAGPDPS [YOL019W 467-480]
25 | 66.8 | NPMQKPVPFVPVLD [YKL182W 1009-1022]
26 | 426 | NLKTKSHPEVPRLD [YLR189C 152-165]
27 | 743 | NIPTKSPPKSPKHK [YLL065W 94-107]
28 | 2270 | NNLKKRPPTAPQRK [YPR171W 465-478]

Biological target: T3, Boi2 SH3 (BOI2_YEAST), P39969
Experiment: SPOT array

Row | Binder | normalised SPOT signal, Boehringer light units (BLU); mean over the file's lines of this peptide
29 | NKPKRKRPAPPKKK [YFR013W 78-91] | 22.9
30 | NPIPKSVPLHPKSG [YEL019C 6-19] | 7.9
31 | NNSTRPIPAIPMDL [YJL133W 8-21] | 20.8
32 | NQIARQIPYQPWYL [YDR107C 515-528] | 37.7
33 | NKIPKHLPADPIFS [YCR032W 1499-1512] | 21
34 | NITEKSPPKSPKHK [YDR543C 77-90] | 18.7
35 | NLSLRYAPNLPPVI [YHL035C 1327-1340] | 25.4
36 | NPFVRINPNRPEAA [YBR136W 500-513] | 47.2

Other lines, results leading:

Row | normalised SPOT signal, Boehringer light units (BLU); mean over the file's lines of this peptide | Binder
37 | 36.1 | NQIARQIPFQPWYL [YLR083C 510-523]
38 | 126 | NLYQRTTPAGPDPS [YOL019W 467-480]
39 | 50.2 | NPMQKPVPFVPVLD [YKL182W 1009-1022]
40 | 142 | NLKTKSHPEVPRLD [YLR189C 152-165]
41 | 1.2 | NIPTKSPPKSPKHK [YLL065W 94-107]
42 | 152 | NNLKKRPPTAPQRK [YPR171W 465-478]

Biological target: T4, Myo5 SH3 (MYO5_YEAST), Q04439
Experiment: SPOT array

Row | Binder | normalised SPOT signal, Boehringer light units (BLU); mean over the file's lines of this peptide
43 | NKPKRKRPAPPKKK [YFR013W 78-91] | 872
44 | NPIPKSVPLHPKSG [YEL019C 6-19] | 364
45 | NNSTRPIPAIPMDL [YJL133W 8-21] | 247
46 | NQIARQIPYQPWYL [YDR107C 515-528] | 164
47 | NKIPKHLPADPIFS [YCR032W 1499-1512] | 278
48 | NITEKSPPKSPKHK [YDR543C 77-90] | 292
49 | NLSLRYAPNLPPVI [YHL035C 1327-1340] | 779
50 | NPFVRINPNRPEAA [YBR136W 500-513] | 276

The remaining lines, values ahead:

Row | normalised SPOT signal, Boehringer light units (BLU); mean over the file's lines of this peptide | Binder
51 | 248 | NQIARQIPFQPWYL [YLR083C 510-523]
52 | 114 | NLYQRTTPAGPDPS [YOL019W 467-480]
53 | 420 | NPMQKPVPFVPVLD [YKL182W 1009-1022]
54 | 363 | NLKTKSHPEVPRLD [YLR189C 152-165]
55 | 12500 | NIPTKSPPKSPKHK [YLL065W 94-107]
56 | 419 | NNLKKRPPTAPQRK [YPR171W 465-478]

The binders below were run against Sho1 SH3 (SHO1_YEAST), P40073 (assay: SPOT array).
Sequence of Sho1 SH3 (SHO1_YEAST), P40073 (P40073 295-366): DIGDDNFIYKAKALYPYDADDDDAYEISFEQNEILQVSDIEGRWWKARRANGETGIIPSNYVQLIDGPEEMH

Row | Binder | normalised SPOT signal, Boehringer light units (BLU); mean over the file's lines of this peptide
57 | NKPKRKRPAPPKKK [YFR013W 78-91] | 88.2
58 | NPIPKSVPLHPKSG [YEL019C 6-19] | 28.7
59 | NNSTRPIPAIPMDL [YJL133W 8-21] | 1770
60 | NQIARQIPYQPWYL [YDR107C 515-528] | 47.5
61 | NKIPKHLPADPIFS [YCR032W 1499-1512] | 67.2
62 | NITEKSPPKSPKHK [YDR543C 77-90] | 74.8
63 | NDDPVIPYKLSKDT [1037-1050 DNA replication helicase] | 201
64 | NANPFLPNKHPVTQ [38-51 Mitochondrial ribosomal protein MRPL25 (YmL25)] | 210
65 | NAPPYVPQRSKQPD [165-178 " Radiation repair protein, putative DNA helicase"] | 143
66 | NLSLRYAPNLPPVI [YHL035C 1327-1340] | 40.5
67 | NPFVRINPNRPEAA [YBR136W 500-513] | 35.9
68 | NHIPPFPLRFSFAQ [532-545 Hypothetical ORF] | 184
69 | NEYPSKPPKVKFPA [66-79 ubiquitin-conjugating enzyme] | 330

The next lines start with the values.

Row | normalised SPOT signal, Boehringer light units (BLU); mean over the file's lines of this peptide | Binder
70 | 75.8 | NQIARQIPFQPWYL [YLR083C 510-523]
71 | 60.6 | NLYQRTTPAGPDPS [YOL019W 467-480]
72 | 191 | NPMQKPVPFVPVLD [YKL182W 1009-1022]
73 | 104 | NLKTKSHPEVPRLD [YLR189C 152-165]
74 | 53 | NIPTKSPPKSPKHK [YLL065W 94-107]
75 | 64.6 | NNLKKRPPTAPQRK [YPR171W 465-478]

Biological target: T5, Yhr016c SH3 (YSC84_YEAST), P32793
Experiment: SPOT array

Row | Binder | normalised SPOT signal, Boehringer light units (BLU); mean over the file's lines of this peptide
76 | NKPKRKRPAPPKKK [YFR013W 78-91] | 81.6
77 | NPIPKSVPLHPKSG [YEL019C 6-19] | 467
78 | NNSTRPIPAIPMDL [YJL133W 8-21] | 44100
79 | NQIARQIPYQPWYL [YDR107C 515-528] | 42.8
80 | NKIPKHLPADPIFS [YCR032W 1499-1512] | 90.5
81 | NITEKSPPKSPKHK [YDR543C 77-90] | 110
82 | NLSLRYAPNLPPVI [YHL035C 1327-1340] | 135
83 | NPFVRINPNRPEAA [YBR136W 500-513] | 73.5

Further lines, results first:

Row | normalised SPOT signal, Boehringer light units (BLU); mean over the file's lines of this peptide | Binder
84 | 50.4 | NQIARQIPFQPWYL [YLR083C 510-523]
85 | 1140 | NLYQRTTPAGPDPS [YOL019W 467-480]
86 | 299 | NPMQKPVPFVPVLD [YKL182W 1009-1022]
87 | 2740 | NLKTKSHPEVPRLD [YLR189C 152-165]
88 | 198 | NIPTKSPPKSPKHK [YLL065W 94-107]
89 | 4310 | NNLKKRPPTAPQRK [YPR171W 465-478]

Biological target: T6, Rvs167 SH3 (RV167_YEAST), P39743
Experiment: SPOT array

Row | Binder | normalised SPOT signal, Boehringer light units (BLU); mean over the file's lines of this peptide
90 | NKPKRKRPAPPKKK [YFR013W 78-91] | 83.6
91 | NPIPKSVPLHPKSG [YEL019C 6-19] | 7.3
92 | NNSTRPIPAIPMDL [YJL133W 8-21] | 58900
93 | NQIARQIPYQPWYL [YDR107C 515-528] | 33.3
94 | NKIPKHLPADPIFS [YCR032W 1499-1512] | 67.8
95 | NITEKSPPKSPKHK [YDR543C 77-90] | 124
96 | NLSLRYAPNLPPVI [YHL035C 1327-1340] | 216
97 | NPFVRINPNRPEAA [YBR136W 500-513] | 56.6

More lines, now with the values ahead:

Row | normalised SPOT signal, Boehringer light units (BLU); mean over the file's lines of this peptide | Binder
98 | 100 | NQIARQIPFQPWYL [YLR083C 510-523]
99 | 344 | NLYQRTTPAGPDPS [YOL019W 467-480]
100 | 284 | NPMQKPVPFVPVLD [YKL182W 1009-1022]
101 | 1080 | NLKTKSHPEVPRLD [YLR189C 152-165]
102 | 64.5 | NIPTKSPPKSPKHK [YLL065W 94-107]
103 | 6090 | NNLKKRPPTAPQRK [YPR171W 465-478]
